Reference: paper PMC11904782, “Armadillo domain of ARID1A directly interacts with DNA-PKcs to couple chromatin remodeling with nonhomologous end joining (NHEJ) pathway” (Nucleic Acids Research, 2025)

B1: His–ARID1A–ARM domain (1914–2285 aa) (domain or fragment, UniProt O14497 1914-2285, looked up)
chain: MLSTRSSTLTEDGAKSSEAIKESSKFPFGISPAQSHRNIKILEDEPHSKDETPLCTLLDWQDSLAKRCVCVSNTIRSLSFVPGNDFEMSKHPGLLLILGKLILLHHKHPERKQAPLTYEKEEEQDQGVSCNKVEWWWDCLEMLRENTLVTLANISGQLDLSPYPESICLPVLDGLLHWAVCPSAEAQDPFSTLGPNAVLSPQRLVLETLSKLSIQDNNVDLILATPPFSRLEKLYSTMVRFLSDRKNPVCREMAVVLLANLAQGDSLAARAIAVQKGSIGNLLGFLEDSLAATQFQQSQASLLHMQNPPFEPTSVDMMRRAARALLALAKVDENHSEFTLYESRLLDISVSPLMNSLVSQVICDVLFLIGQS
notes: ARID1A residues 1914-2285 (ARM domain); Limits are printed for the BLI ligand; also called His-tagged ARM domain of ARID1A

Tests used:
Conditions in all cases: both partners purified
[1] = biological target: B1; assay: BLI; Octet Red K2; His–ARID1A–ARM domain immobilised on NTA biosensors; GST recombinant proteins as analytes in serial dilutions
[2] = biological target: B1; assay: far-Western, overlay or dot blot; GST-fusion proteins separated by SDS–PAGE, transferred to PVDF, renatured through falling guanidine–HCl, incubated with His–ARID1A–ARM overnight at 4°C, probed with anti-His-tag antibody
[3] = biological target: T1, GST-DNTT: aa 1–509 (UniProt P04053 1-509); assay: as above
T1 construct: DNA nucleotidylexotransferase (DNTT) residues 1-509; also called DNA nucleotidylexotransferase
T1 sequence (P04053 whole entry, the tested form may be a part): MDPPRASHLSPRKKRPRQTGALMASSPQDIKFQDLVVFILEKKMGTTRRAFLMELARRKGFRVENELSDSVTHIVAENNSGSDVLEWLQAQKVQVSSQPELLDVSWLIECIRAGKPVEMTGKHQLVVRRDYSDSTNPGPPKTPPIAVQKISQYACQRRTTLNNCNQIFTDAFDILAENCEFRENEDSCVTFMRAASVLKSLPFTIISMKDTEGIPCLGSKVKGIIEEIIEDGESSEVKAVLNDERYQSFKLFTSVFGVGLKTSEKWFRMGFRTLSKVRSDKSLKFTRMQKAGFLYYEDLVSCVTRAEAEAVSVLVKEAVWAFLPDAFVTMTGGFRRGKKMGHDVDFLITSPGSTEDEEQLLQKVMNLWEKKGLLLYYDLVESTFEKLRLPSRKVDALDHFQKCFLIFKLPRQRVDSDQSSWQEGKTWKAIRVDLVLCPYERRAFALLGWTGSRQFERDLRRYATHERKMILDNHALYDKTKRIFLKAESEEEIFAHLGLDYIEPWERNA

Row | binding result [1] | binding result [2] | Binder | other results
1 | binds | – | wild-type GST–DNA–PKcs (3552–3691 aa) (domain or fragment, UniProt P78527 3552-3691, looked up, DNA-PKcs residues 3552-3691; also called recombinant wild-type DNA-PKcs; longer amino acid region (3552–3691 aa)) KEFVARIKSKLDQGGVIQDFINALDQLSNPELLFKDWSNDVRAELAKTPVNKKNIEKMYERMYAALGDPKAPGLGAFRRKFIQTFGKEFDKHFGKGGSKLLRMKLSDFNDITNMLLLKMNKDSKPPGNLKECSPWMSDFK | –
2 | binds | – | GST-POLB (7–53 aa) (domain or fragment, DNA polymerase beta residues 7-53; Printed as GAT-POLB in the methods; also called GAT-POLB (7–53 aa); recombinant POLB) not shown | –
3 | – | binds | GST-EZH2-C: aa 598–746 (domain or fragment, enhancer of zeste 2 PRC2 subunit 2 (EZH2) residues 598-746) not shown | –
4 | – | binds | AALGDPKAPGLGAFRRKFIQTFGKEFDKHFGKGGSKLLRMKLSDFN (domain or fragment, UniProt P78527 3615-3660, looked up, DNA-PKcs residues 3615-3660, printed as 45 amino acids) [GST–DNA–PKcs ARID1A-binding region (3615–3660 aa), wild type] | –
5 | – | – | B1 | binding result [3]: binds
